Here are results for 6 molecules from patent US20200054723A1 (ALLAKOS, published 2020).

In assay [1] the target is T1, human Siglec-8 Domains 1, 2, and 3 Fusion Protein (human).
T1 construct: fused to human Ig-Fc, expressed in CHO cells; also called Domain 1 + 2 + 3-Fc
As to the kind of experiment: Western blot of reduced SDS-PAGE (linear epitope). On the technique in general: In western blotting, separated proteins are transferred to a membrane and probed.

In assay [2] the target is T2, human Siglec-8 on human cells (eosinophils, mast cells) (human, UniProt Q9NYZ4 17-499). In words: cell-based or functional assay.
T2 sequence (Q9NYZ4 17-499): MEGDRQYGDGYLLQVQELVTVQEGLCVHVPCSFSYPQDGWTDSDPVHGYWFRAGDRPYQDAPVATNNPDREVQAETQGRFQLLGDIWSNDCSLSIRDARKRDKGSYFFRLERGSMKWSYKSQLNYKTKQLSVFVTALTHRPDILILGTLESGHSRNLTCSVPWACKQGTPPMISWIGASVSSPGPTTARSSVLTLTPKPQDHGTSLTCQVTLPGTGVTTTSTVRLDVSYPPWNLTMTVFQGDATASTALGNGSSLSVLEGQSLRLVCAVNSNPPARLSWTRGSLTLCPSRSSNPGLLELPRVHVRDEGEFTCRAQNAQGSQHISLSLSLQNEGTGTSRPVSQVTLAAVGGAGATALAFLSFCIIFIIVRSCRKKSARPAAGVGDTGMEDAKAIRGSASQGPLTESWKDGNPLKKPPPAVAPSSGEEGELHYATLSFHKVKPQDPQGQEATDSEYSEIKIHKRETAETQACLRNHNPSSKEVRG
Assay [3] deals with T3, baboon Siglec-8 Domains 1, 2, and 3 Fusion Protein (olive baboon (Papio anubis)).
T3 construct: fused to human Ig-Fc
T3 sequence (chain, as listed by the source limits assumed): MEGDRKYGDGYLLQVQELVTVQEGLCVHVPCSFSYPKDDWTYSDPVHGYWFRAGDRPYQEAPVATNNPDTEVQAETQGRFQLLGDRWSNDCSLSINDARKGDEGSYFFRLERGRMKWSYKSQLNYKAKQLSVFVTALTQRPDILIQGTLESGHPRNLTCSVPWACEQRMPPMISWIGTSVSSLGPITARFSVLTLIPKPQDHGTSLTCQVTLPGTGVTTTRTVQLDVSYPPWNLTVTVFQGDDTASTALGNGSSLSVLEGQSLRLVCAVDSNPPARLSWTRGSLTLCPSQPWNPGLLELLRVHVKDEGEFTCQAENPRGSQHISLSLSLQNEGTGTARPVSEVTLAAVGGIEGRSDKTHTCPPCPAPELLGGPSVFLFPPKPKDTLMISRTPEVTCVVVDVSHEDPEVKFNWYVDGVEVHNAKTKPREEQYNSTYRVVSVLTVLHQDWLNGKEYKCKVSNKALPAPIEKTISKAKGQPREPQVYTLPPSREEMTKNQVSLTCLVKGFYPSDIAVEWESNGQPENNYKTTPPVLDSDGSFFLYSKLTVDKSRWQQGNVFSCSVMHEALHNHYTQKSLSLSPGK
In words: ELISA, baboon cross-reactivity. The protocol: (§1) To identify the region comprising the epitope for anti-Siglec-8 antibodies, fusion proteins containing each of the Siglec-8 extracellular domains fused to human Ig-Fc were expressed and purified from CHO cells.
(§2) For the antibody binding assays, ELISA plates (MaxiSorp; Nunc) were coated overnight at 4° C. with fusion protein at 0.2 μg/ml and blocked for 1 hour at room temperature with 2% BSA in PBS. Antibodies at 1 μg/ml were added and the plates were incubated for 2 hours at room temperature. After washing the plates, horseradish peroxidase conjugated secondary antibody was added and the plates were incubated for 1 hour. Secondary antibodies were anti-human H+L HRP (Jackson ImmunoResearch, Catalog Number 709-035-149) for humanized antibodies or anti-mouse H+L HRP (Jackson ImmunoResearch, Catalog Number 715-035-151) for mouse antibodies. The plates were developed with TMB Substrate (Sigma, Catalog Number T0440-1L).
In general terms: ELISA stands for enzyme-linked immunosorbent assay.

In assay [4] the target is T4, human Siglec-8 Domain 1 Fusion Protein (human).
T4 construct: fused to human Ig-Fc, expressed in CHO cells; also called Domain 1-Fc
T4 sequence (chain, as listed by the source limits assumed): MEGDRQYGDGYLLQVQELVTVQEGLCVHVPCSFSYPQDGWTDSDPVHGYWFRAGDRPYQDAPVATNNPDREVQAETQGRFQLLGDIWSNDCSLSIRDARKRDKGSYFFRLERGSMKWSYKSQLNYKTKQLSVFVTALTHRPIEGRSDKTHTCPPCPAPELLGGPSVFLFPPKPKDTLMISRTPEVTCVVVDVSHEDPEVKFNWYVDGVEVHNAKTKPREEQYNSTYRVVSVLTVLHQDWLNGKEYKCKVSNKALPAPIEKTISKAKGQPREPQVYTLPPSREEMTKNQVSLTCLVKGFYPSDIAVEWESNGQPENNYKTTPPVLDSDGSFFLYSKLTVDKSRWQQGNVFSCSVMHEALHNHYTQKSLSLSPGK
As to the kind of experiment: ELISA, coated fusion protein. The protocol: as §1, §2

Assay [5] has as its target T3, baboon Siglec-8 Domains 1, 2, and 3 …. As to the kind of experiment: ELISA, coated fusion protein. Here is the method: as §1, §2
The target in assay [6] is T1, human Siglec-8 Domains 1, 2, and 3 …. In words: ELISA, coated fusion protein, antibody at 1 µg/ml. Here is the method: as §1, §2
Assay [7] addresses T5, human Siglec-8 Domains 1 and 2 Fusion Protein (human).
T5 construct: fused to human Ig-Fc, expressed in CHO cells; also called Domain 1 + 2-Fc
As to the kind of experiment: ELISA, coated fusion protein, antibody at 1 µg/ml. The protocol:
as §1, §2

In assay [8] the target is T6, recombinant human Siglec-8 extracellular domain (ECD) (human, UniProt Q9NYZ4 17-363).
T6 construct: extracellular domain; also called Siglec-8 ECD; full Siglec-8 ECD
T6 sequence (Q9NYZ4 17-363): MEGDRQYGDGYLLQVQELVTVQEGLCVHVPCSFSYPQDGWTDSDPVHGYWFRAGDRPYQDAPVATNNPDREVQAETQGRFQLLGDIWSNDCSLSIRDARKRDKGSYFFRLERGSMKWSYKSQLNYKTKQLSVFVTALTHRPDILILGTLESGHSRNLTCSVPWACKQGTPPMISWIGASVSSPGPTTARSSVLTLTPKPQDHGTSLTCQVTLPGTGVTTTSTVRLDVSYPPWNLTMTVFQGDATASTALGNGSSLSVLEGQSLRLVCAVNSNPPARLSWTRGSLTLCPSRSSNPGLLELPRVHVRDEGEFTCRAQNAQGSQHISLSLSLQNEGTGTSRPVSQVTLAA
In words: ELISA, coated Siglec-8 ECD.

In assay [9] the target is T6, recombinant human Siglec-8 …. In words: ELISA, coated Siglec-8 ECD. This is another data set of the same source.
In assay [10] the target is T2, human Siglec-8 on human cells …. In words: cell-based or functional assay. The source holds these as a separate data set.
In assay [11] the target is T4, human Siglec-8 Domain 1 Fusion Protein. In words: ELISA, coated fusion protein, antibody at 1 µg/ml. Here is the method:
as §1, §2

For assay [12], the target named is T7, Dimeric Siglec-8 (human Siglec-8 ECD protein) (human, UniProt Q9NYZ4 17-363).
T7 construct: extracellular domain; Analyte of the Biacore avidity assay
T7 sequence (Q9NYZ4 17-363): as above
In words: SPR (Biacore), antibody captured, dimeric Siglec-8 as analyte, 1:1 global fit (avidity). Here is the method: Antibody avidity determination was carried out by SPR analysis using a Biacore T200. Binding of human Siglec-8 ECD protein to mouse, chimeric and humanized anti-Siglec-8 antibodies was measured on a […]. The capture antibodies (goat-anti-human-Fc and goat-anti-mouse-Fc from Jackson Immunoresearch) were immobilized on a CM5 chip according to manufacturer's protocol (Biacore, GE). Flow-cell 1, 2 and 3 were immobilized with anti-human, and flow cell 4 with anti-mouse antibodies. The assay was conducted at 25° C., at a flow rate of […]. Assay buffer was 20 mM Tris-HCl pH 8.3, 150 mM Sodium Chloride, 0.05% Polysorbate 20, 10% glycerol, 0.1% BSA, made in ultrapure water. Dimeric Siglec-8 (impurities of monomeric and oligomeric Siglec-8 were removed by size-exclusion chromatography) was diluted in assay buffer from 15 nM to […] with 2× dilutions. Antibodies were captured to a change of approximately 120 RU. Six-minute high performance injections were conducted, followed by 120-minute dissociations. Flow cells were regenerated with 50 mM glycine pH 1.5. Results were double blanked with an empty reference cell and multiple assay buffer injections, and analyzed with 1:1 global fit parameters.

Several values for one entry are separate records, joined by “and”; a condition that tells them apart may be missing. Equal entries are not always repeated.

T1 sequence (chain, as listed by the source limits assumed): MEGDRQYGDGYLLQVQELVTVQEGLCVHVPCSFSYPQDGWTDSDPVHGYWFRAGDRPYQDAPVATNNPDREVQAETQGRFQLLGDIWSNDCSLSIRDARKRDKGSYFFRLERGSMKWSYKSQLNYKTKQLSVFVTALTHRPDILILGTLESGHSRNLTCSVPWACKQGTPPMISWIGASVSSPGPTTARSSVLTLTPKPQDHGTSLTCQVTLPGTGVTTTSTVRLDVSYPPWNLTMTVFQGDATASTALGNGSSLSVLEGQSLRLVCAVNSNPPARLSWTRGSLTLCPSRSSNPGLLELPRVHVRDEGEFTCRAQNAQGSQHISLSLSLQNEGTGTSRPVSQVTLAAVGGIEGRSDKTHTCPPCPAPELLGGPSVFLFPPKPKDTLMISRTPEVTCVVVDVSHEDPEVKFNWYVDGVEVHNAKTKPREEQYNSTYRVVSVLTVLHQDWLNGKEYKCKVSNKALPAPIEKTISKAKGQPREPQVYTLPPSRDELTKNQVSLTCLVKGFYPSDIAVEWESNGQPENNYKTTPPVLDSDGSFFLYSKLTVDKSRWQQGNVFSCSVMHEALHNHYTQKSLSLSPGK
T5 sequence (chain, as listed by the source limits assumed): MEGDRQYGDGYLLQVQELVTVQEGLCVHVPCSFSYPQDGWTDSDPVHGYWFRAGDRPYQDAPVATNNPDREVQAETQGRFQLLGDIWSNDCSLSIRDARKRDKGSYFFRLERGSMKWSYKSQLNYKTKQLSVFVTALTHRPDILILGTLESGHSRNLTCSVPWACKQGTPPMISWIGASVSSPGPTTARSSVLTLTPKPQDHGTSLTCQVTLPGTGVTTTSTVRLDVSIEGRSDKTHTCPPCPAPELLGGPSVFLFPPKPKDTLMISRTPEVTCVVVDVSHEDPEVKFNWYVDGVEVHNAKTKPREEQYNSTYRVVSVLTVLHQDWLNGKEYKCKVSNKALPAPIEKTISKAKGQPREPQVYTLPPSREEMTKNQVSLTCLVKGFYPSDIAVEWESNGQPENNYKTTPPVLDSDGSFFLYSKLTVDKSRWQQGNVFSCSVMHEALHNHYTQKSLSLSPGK

B1: murine 4F11 antibody (antibody, mouse IgG1, V domains shown)
VH: QVQLQQSGAELVKPGASVKISCKASGYAFRSSWMNWVKQRPGKGLEWIGQIYPGDDYTNYNGKFKGKVTLTADRSSSTAYMQLSSLTSEDSAVYFCARLGPYGPFADWGQGTLVTVSA
VL: QIVLTQSPAIVSASPGEKVTMTCSASSSVSYMYWYQQRPGSSPRLLIYDTSSLASGVPVRFSGSGSGTSYSLTISRIESEDAANYYCQQWNSDPYTFGGGTKLEIK
notes: murine IgG1 heavy chain and kappa light chain
Take B1: the binding result in assay [1] and in [3] was “binds” each time. Further, in assay [2], the “Mean EC50 (ng/ml) for eosinophil killing (2 donors)” value (“Mean EC50 (ng/ml) … (2 donors)” for short) was determined as 5.9 ng/mL.

B2: murine 1H10 antibody (antibody, mouse IgG1, V domains shown)
VH: EVQLQQSGAELVRPGASVKLSCTASGFNIKDYYMYWVKQRPEQGLEWIGRIAPEDGDTEYAPKFQGKATVTADTSSNTAYLHLSSLTSEDTAVYYCTTEGNYYGSSILDYWGQGTTLTVSS
VL: DIQMTQTTSSLSASLGDRVTISCRASQDITNYLNWYQQKPDGTVKLLIYFTSRLHSGVPSRFSGSGSGTDYSLTISNLEQEDIATYFCQQGNTLPWTFGGGTKLEIK
notes: as for B1
With B2, the binding result in [1] and in assay [3] was “binds” throughout. For the same molecule, the “Mean EC50 (ng/ml) … (2 donors)” value in assay [2] worked out at 41 ng/mL.

B3: murine 1C3 antibody (antibody, mouse IgG2a, V domains shown)
VH: EVQVVESGGDLVKSGGSLKLSCAASGFPFSSYAMSWVRQTPDKRLEWVAIISSGGSYTYYSDSVKGRFTISRDNAKNTLYLQMSSLKSEDTAMYYCARHETAQAAWFAYWGQGTLVTVSA
VL: QIVLTQSPAIMSASPGEKVTMTCSASSSVSYMHWYQQKSGTSPKRWIYDTSKLAYGVPARFSGSGSGTSYSLTISSMEAEDAATYYCQQWSSNPPTFGGGTKLEIK
notes: murine IgG2a heavy chain and kappa light chain
In the case of B3, the binding result in assay [4] is on record as “no binding (tested: 1 µg/ml)”; in [5], “no binding (tested: 1 µg/ml)”; in [6], “binds”; in [7], “binds”. Also, the “Mean EC50 (ng/ml) … (2 donors)” value in assay [2] turned out to be 7.7 ng/mL.

B4: HA2KG (antibody, human IgG1, V domains shown)
VH: QVQLQESGPGLVKPSETLSLTCTVSGGSISIYGAHWIRQPPGKGLEWIGVIWAGGSTNYNSALMSRVTISVDTSKNQFSLKLSSVTAADTAVYYCARDGSSPYYYSMEYWGQGTLVTVSS
VL: EIVLTQSPATLSLSPGERATLSCSATSSVSYMHWYQQKPGQAPRLLIYSTSNLASGIPARFSGSGSGTDFTLTISSLEPEDFAVYYCQQRSSYPFTFGPGTKLDIK
notes: human IgG1/kappa
Take B4: the binding result in assay [8] was “no binding”.

B5: HEKA IgG1 antibody (antibody)
heavy: not shown
light: EIVLTQSPATLSLSPGERATLSCSATSSVSYMHWFQQKPGQAPRLLIYSTSNLASGIPARFSGSGSGTDFTLTISSLEPEDFAVYYCQQRSSYPFTFGPGTKLDIKRTVAAPSVFIFPPSDEQLKSGTASVVCLLNNFYPREAKVQWKVDNALQSGNSQESVTEQDSKDSTYSLSSTLTLSKADYEKHKVYACEVTHQGLSSPVTKSFNRGEC
B5: in assay [9], the EC50 is 0.068 nM and 0.054 nM and 0.064 nM and 0.112 nM. Also, the “Mean EC50 (ng/ml) for eosinophil depletion” value in [10] is 4.3 ng/mL. Besides, the binding result in assay [6] is recorded as “binds”. Also, the binding result in [11] was “binds”. Also, the binding result in assay [7] is on record as “binds”. In assay [12], this molecule displayed a Kd of 0.017 nM, a koff of 1.11e-05 s⁻¹ and an on-rate constant (kon) of 638000 M⁻¹ s⁻¹.

B6: mouse 2E2 antibody (antibody, mouse IgG1, kappa)
heavy: QVQLKRASGPGLVAPSQSLSITCTVSGFSLTIYGAHWVRQPPGKGLEWLGVIWAGGSTNYNSALMSRLSISKDNSKSQVFLKINSLQTDDTALYYCARDGSSPYYYSMEYWGQGTSVTVSSAKTTPPSVYPLAPGSAAQTNSMVTLGCLVKGYFPEPVTVTWNSGSLSSGVHTFPAVLESDLYTLSSSVTVPSSPRPSETVTCNVAHPASSTKVDKKIVPRDCGCKPCICTVPEVSSVFIFPPKPKDVLTITLTPKVTCVVVDISKDDPEVQFSWFVDDVEVHTAQTQPREEQFNSTFRSVSELPIMHQDWLNGKEFKCRVNSAAFPAPIEKTISKTKGRPKAPQVYTIPPPKEQMAKDKVSLTCMITDFFPEDITVEWQWNGQPAENYKNTQPIMNTNGSYFVYSKLNVQKSNWEAGNTFTCSVLHEGLHNHHTEKSLSHSPG
light: QIILTQSPAIMSASPGEKVSITCSATSSVSYMHWFQQKPGTSPKLWIYSTSNLASGVPVRFSGSGSGTSYSLTISRMEAEDAATYYCQQRSSYPFTFGSGTKLEIKADAAPTVSIFPPSSEQLTSGGASVVCFLNNFYPKDINVKWKIDGSERQNGVLNSWTDQDSKDSTYSMSSTLTLTKDEYERHNSYTCEATHKTSTSPIVKSFNRNEC
notes: murine IgG1/kappa; also called m2E2; murine 2E2
With B6, the binding result in assay [5] is recorded as “no binding (tested: 1 µg/ml)”. Also, in assay [10], the “Mean EC50 (ng/ml) for eosinophil depletion” value came out at 6.8 ng/mL. Besides, in assay [12], the Kd came to 0.028 nM, the koff is 1.54e-05 s⁻¹ and the kon came to 556000 M⁻¹ s⁻¹. For the same molecule, the “Mean EC50 (ng/ml) … (2 donors)” value in [2] came to 6.9 ng/mL.

For orientation: EC50 means the midpoint of the concentration-response curve. The koff is the first-order rate constant of dissociation. Read a low koff as slow dissociation. The term kon denotes the rate constant with which the complex forms.
